Experimental data taken from doi:10.1101/2020.05.15.096610 (bioRxiv, 2020).
Where two headings read alike, the source gives them in different places.

Tests used:
[1] = biological target: the molecule itself; experiment: cryo-EM structure
[2] = biological target: the molecule itself; experiment: cryo-EM structure; remark: listed apart in the source

B1: Campylobacter jejuni MotB (natural protein, UniProt Q0PBH3 1-247, looked up)
chain: MAKKHKCPECPAGEKWAVPYADFLSLLLALFIALWAISKTNPAKVEALKTEFVKIFDYTSTQTVKEESKTQEKYKGAAKEESDELKSLKQMTMTQQETIKRLQAALDQSDNQVALNLPSKVEFERGSAQIVSADIQDYLKRMAELTTYLPPQAKIEIRGYTDNSDSIIRSYELAYQRAENVLKYFIEGGANLKNISIKSYGLNNPINGNPQTLENNRVEIYFKVDTADTSTQKSVLELINKIGTKAP
In the case of B1, the “stoichiometry N” value [1] is reported as 2.

B2: Vibrio alginolyticus PomB (natural protein, UniProt O06874 1-315, looked up)
chain: MDDEDNKCDCPPPGLPLWMGTFADLMSLLMCFFVLLLSFSEMDVLKFKQIAGSMKFAFGVQNQLEVKDIPKGTSIIAQEFRPGRPEPTPIDVIMQQTMDITQQTLEFHEGESDRAGGTKRDEGKLTGGQSPATSTQNNESAEADMQQQQSKEMSQEMETLMESIKKALEREIEQGAIEVENLGQQIVIRMREKGAFPEGSAFLQPKFRPLVRQIAELVKDVPGIVRVSGHTDNRPLDSELYRSNWDLSSQRAVSVAQEMEKVRGFSHQRLRVRGMADTEPLLPNDSDDNRALNRRVEISIMQGEPLYSEEVPVIQ
With B2 the “stoichiometry N” value [2] was 2.

B3: Campylobacter jejuni MotB(Δ41-60) (natural protein, UniProt Q0PBH3 1-247, looked up)
chain: MAKKHKCPECPAGEKWAVPYADFLSLLLALFIALWAISKTTQTVKEESKTQEKYKGAAKEESDELKSLKQMTMTQQETIKRLQAALDQSDNQVALNLPSKVEFERGSAQIVSADIQDYLKRMAELTTYLPPQAKIEIRGYTDNSDSIIRSYELAYQRAENVLKYFIEGGANLKNISIKSYGLNNPINGNPQTLENNRVEIYFKVDTADTSTQKSVLELINKIGTKAP
B3: binds [1].

B4: Campylobacter jejuni MotB(Δ41-60, D22N) (natural protein, UniProt Q0PBH3 1-247, looked up)
chain: MAKKHKCPECPAGEKWAVPYANFLSLLLALFIALWAISKTTQTVKEESKTQEKYKGAAKEESDELKSLKQMTMTQQETIKRLQAALDQSDNQVALNLPSKVEFERGSAQIVSADIQDYLKRMAELTTYLPPQAKIEIRGYTDNSDSIIRSYELAYQRAENVLKYFIEGGANLKNISIKSYGLNNPINGNPQTLENNRVEIYFKVDTADTSTQKSVLELINKIGTKAP
B4: binds [1].
